# Data taken from patent US20210275685A1 (IMMUNOGEN, published 2021).
# Residue numbers refer to the chain shown, from its start.
# T1: His-tagged soluble human ADAM9 (human, UniProt Q13443 206-697)
# T1 construct: also called shADAM9-His; huADAM9-His
# T1 sequence: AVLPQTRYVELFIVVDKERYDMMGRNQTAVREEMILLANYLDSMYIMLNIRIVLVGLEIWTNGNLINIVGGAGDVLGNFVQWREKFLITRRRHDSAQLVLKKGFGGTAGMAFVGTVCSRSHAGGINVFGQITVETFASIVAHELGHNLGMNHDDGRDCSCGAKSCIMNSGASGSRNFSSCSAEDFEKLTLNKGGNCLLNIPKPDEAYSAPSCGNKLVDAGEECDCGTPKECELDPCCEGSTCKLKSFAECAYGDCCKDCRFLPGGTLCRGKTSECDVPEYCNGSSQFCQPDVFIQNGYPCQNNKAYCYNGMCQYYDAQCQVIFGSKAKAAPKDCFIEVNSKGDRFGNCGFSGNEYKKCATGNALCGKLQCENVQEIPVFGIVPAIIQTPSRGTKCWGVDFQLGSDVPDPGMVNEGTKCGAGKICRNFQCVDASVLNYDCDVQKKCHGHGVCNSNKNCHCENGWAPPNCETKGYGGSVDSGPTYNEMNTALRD
# B1: hMAB-A (2.2) (antibody, V domains shown)
# VH: EVQLVESGGGLVKPGGSLRLSCAASGFTFSSYWMHWVRQAPGKGLEWVGEIIPIFGHTNYNEKFKSRFTISLDNSKNTLYLQMGSLRAEDTAVYYCARGGYYYYGSRDYFDYWGQGTTVTVSS
# VL: DIVMTQSPDSLAVSLGERATISCKASQSVDYSGDSYMNWYQQKPGQPPKLLIYAASDLESGIPARFSGSGSGTDFTLTISSLEPEDFATYYCQQSHEDPFTFGQGTKLEIK
# notes: also called parental hMAB-A (2.2); hMAB-A VH(2)/hMAB-A VL(2)
# B2: hMAB-A (3.3) (antibody, V domains shown)
# VH: B1 VH with K63R, K65Q, S66G
# VL: B1 VL with K24R
# notes: human Fc; also called hMAB-A VH(3)/hMAB-A VL(3)
# B3: hMAB-A (2.3) (antibody, V domains shown)
# VH: B1 VH
# VL: B1 VL with K24R
# notes: human Fc; also called hMAB-A VH(2)/hMAB-A VL(3)
# B4: hMAB-A (2I.2) (antibody, human IgG1, kappa)
# heavy: not shown
# light: DIVMTQSPDSLAVSLGERATISCKASQSVDYSGDSYMNWYQQKPGQPPKLLIYAASDLESGIPARFSGSGSGTDFTLTISSLEPEDFATYYCQQSHEDPFTFGQGTKLEIKRTVAAPSVFIFPPSDEQLKSGTASVVCLLNNFYPREAKVQWKVDNALQSGNSQESVTEQDSKDSTYSLSSTLTLSKADYEKHKVYACEVTHQGLSSPVTKSFNRGEC
# notes: also called MAB-A VH(2I); MAB-A VH(2I.2)
# Assays:
# [1] = molecular target: T1, His-tagged soluble human ADAM9; assay: BIACORE, against antibodies without N54F (Table 3)
# Source text: The relative binding affinity of the humanized/optimized antibodies hMAB-A (1.1), hMAB-A (2.2), hMAB-A (2.3), hMAB-A (3.3), hMAB-A (4.4) and the chimeric chMAB-A (having murine VH/VL Domains) to huADAM was investigated using BIACORE® analysis, in which His-tagged soluble human ADAM9 (“shADAM9-His,” containing an extracellular portion of human ADAM9 fused to a histidine-containing protein) was passed over a surface coated with immobilized antibody. Briefly, each antibody was captured on a Fab2 goat anti-human Fc surface and then incubated in the presence of different concentrations (6.25-100 nM) of the shADAM9-His protein. The kinetics of binding were determined via BIACORE® analysis binding (normalized 1:1 Langmuir binding model). Binding to cynoADAM9 was examined by FACS as described above and by ELISA.
# huFcRn = molecular target: T2, huFcRn (Homo sapiens, UniProt P55899); assay: sensorgram (RU against time) at pH 6.0: FcRn immobilized, antibody injected at 25 nM and 100 nM; responses of about 60-70 RU and about 190 RU
# T2 construct: construct not described; also called human neonatal Fc receptor
# T2 sequence (P55899 24-297 limits assumed, form in doubt): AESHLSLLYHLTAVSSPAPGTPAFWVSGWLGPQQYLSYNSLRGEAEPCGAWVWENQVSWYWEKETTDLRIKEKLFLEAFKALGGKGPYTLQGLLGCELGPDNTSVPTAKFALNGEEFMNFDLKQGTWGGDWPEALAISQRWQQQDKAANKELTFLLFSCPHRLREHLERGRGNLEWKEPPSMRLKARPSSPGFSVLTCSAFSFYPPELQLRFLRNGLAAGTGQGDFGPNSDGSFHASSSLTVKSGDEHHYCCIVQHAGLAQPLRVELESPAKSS
Binder,fold increase in affinity [1],Kd (huFcRn)
B1,~2 fold,
B2,~2 fold,
B3,~2 fold,
B4,,161 nM
